The results in this text go back to PMC9709291 (Frontiers in Immunology, 2022).

This experiment addresses TcdA^1073-1464 (fragment of the delivery and receptor-binding domain of TcdA, residues 1073-1464) (Clostridioides difficile VPI10463, UniProt P16154). Description: pull-down. The note with it: both partners purified.

TcdA^1073-1464 (fragment of the delivery and receptor-binding domain of TcdA, residues 1073-1464), sequence (P16154 1073-1464): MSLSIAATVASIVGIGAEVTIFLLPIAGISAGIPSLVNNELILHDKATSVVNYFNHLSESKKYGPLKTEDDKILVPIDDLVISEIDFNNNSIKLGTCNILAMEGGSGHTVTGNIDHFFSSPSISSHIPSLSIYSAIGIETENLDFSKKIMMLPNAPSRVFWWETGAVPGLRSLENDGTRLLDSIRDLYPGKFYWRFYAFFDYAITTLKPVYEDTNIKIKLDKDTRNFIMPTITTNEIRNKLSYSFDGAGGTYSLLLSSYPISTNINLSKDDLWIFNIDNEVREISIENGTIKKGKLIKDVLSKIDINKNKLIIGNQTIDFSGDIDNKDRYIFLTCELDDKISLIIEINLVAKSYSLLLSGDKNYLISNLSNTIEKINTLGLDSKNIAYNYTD

B1: VHH AA6 (VHH)
VHH: QVQLVESGGGLVQPGGSLRLSCAASGFTFSDYVMTWVRQAPGKGPEWIATINTDGSTMRDDSTKGRFTISRDNAKNTLYLQMTSLKPEDTALYYCARGRVISASAIRGAVRGPGTQVTVSS
For B1, the binding result is given as “binds”.
